From PMC8716947

Test system: T1, KguR (MBP-KguR-His6) (Escherichia coli (uropathogenic, CFT073)), ORF:aaa0ecb8
T1 sequence: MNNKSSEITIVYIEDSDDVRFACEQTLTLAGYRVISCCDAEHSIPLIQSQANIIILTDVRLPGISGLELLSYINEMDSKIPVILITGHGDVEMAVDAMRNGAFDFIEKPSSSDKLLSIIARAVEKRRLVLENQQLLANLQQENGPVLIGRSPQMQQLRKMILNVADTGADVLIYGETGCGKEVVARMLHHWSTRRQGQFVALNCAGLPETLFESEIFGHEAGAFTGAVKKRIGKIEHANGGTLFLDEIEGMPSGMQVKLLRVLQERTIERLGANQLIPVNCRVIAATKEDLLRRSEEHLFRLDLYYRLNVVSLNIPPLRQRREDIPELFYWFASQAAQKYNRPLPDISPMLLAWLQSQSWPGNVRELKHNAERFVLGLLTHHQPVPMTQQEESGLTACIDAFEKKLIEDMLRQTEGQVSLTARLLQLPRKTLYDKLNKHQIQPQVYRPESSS
Assay: EMSA

## CATTCATCATCCATTGAATGCATTTATATTTATCATCAGTATATTCCCTGAACAATGTTTGCGAGAACCAAAAGAGTGCCATTGTGTGAATGTGTAAGCAGAATAACCGTGGCAATGTGTGGTTTATCGCACAGGTATTCCAAATGTGATCATGCTCTTTTTATGTGACAAATCCGCAGATAATCCTTCCTTTCCCCCGCGGTTGGCGTTATGGTCAGATGGTT (double strand) [PkguS]
  binding: binds
